Experimental data reported in patent publication US20170101458A1.

Key:
[1] = target: hLDLR-K809R\C818A (human) (UniProt P01130); experiment: cell-based or functional assay
[2] = target: wild type human low density lipoprotein receptor (hLDLR), isoform 1 (human) (UniProt P01130); experiment: cell-based or functional assay

Substance: human inducible degrader of LDLR (hIDOL) (from UniProt Q8WY64 1-445)
- percent LDL positive HEK293 cells, hLDLR-K809R\C818A co-transfected with hIDOL [1]: 14 % of cells
- percent LDL positive HEK293 cells, hLDLR co-transfected with hIDOL [2]: 2 % of cells
